The target in series [1] is CD3 epsilon/delta heterodimer (Homo sapiens) (UniProt P07766+P04234). In words: SPR. The following applies: kinetic.
Series [2] deals with CD3 epsilon/gamma heterodimer (Homo sapiens) (UniProt P07766+P09693). The series is described as follows: SPR. The following applies: steady state.
Series [3] deals with CD3 complex on Jurkat cells (Homo sapiens). The series is described as follows: flow. The following applies: apparent.
The target in series [4] is CD3 epsilon/delta heterodimer (Macaca fascicularis) (UniProt Q95LI5+Q95LI8). In words: SPR. The following applies: steady state.
Series [5] addresses T1, CD3 epsilon/delta heterodimer (Mus musculus) (UniProt P22646+P04235).
T1 sequence 1: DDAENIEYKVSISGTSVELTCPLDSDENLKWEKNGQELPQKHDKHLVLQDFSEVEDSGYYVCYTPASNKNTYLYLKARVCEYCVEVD
T1 sequence 2: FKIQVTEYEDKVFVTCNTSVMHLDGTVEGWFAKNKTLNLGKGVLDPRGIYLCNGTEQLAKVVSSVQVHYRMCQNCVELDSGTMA
The series is described as follows: SPR. The following applies: steady state.

CD3 epsilon/delta heterodimer (Homo sapiens), sequence (P07766 23-126, stated change not applied, chain 1 of 2): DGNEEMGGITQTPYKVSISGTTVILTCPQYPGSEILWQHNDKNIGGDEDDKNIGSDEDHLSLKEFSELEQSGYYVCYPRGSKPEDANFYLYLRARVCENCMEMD
CD3 epsilon/delta heterodimer (Homo sapiens), sequence (P04234 22-105, stated change not applied, chain 2 of 2): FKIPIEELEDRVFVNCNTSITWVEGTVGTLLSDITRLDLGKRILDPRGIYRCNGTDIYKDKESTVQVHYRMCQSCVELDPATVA
CD3 epsilon/gamma heterodimer (Homo sapiens), sequence (P07766 23-126, chain 1 of 2): as the sequence (P07766 23-126, stated change not applied, chain 1 of 2) above
CD3 epsilon/gamma heterodimer (Homo sapiens), sequence (P09693 23-116, chain 2 of 2): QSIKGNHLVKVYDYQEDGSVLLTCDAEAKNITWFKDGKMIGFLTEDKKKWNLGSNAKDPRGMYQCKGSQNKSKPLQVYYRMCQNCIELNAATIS
CD3 epsilon/delta heterodimer (Macaca fascicularis), sequence (Q95LI5 22-117, stated change not applied, chain 1 of 2): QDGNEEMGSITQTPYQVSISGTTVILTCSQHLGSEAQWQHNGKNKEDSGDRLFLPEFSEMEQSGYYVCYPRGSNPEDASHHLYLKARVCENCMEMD
CD3 epsilon/delta heterodimer (Macaca fascicularis), sequence (Q95LI8 22-105, stated change not applied, chain 2 of 2): as the sequence (P04234 22-105, stated change not applied, chain 2 of 2) above, with I5V, N15K, I20V, S32T, D33N, I34N, T64A, S74N, V83L counted along it

In the case of GGGTTTGGCATCGGGCTGGC [CELTIC_core_29], the Kd in series [1] (_ is abasic C3 spacer at position 16, 5'-HEG) worked out at 0.014 nM; in series [2] (_ is abasic C3 spacer at position 16, 5'-HEG, kinetic 5.4 pM (Table 8)) it was 205 nM.

With GGGTTTGGCACGGGCTGGC [CELTIC_core_42], the Kd in series [1] (_ is abasic C3 spacer at positions 11 and 16, 5'-HEG) was 0.772 nM; in series [2] (_ is abasic C3 spacer at positions 11 and 16, 5'-HEG, kinetic 277 pM (Table 8)) it was 194 nM; in series [3] (_ is abasic C3 spacer (positions 11 and 16), 5'-HEG, biotin at 5' or 3' end equivalent) it was less than 50 nM.

On to “GGGTTTGGCACGGGCTGGC [CELTIC_core_42 5'-tetrazine]”, for which the Kd in series [3] (_ is abasic C3 spacer (positions 11 and 16), HEG, 5'-tetrazine-PEG5, specificity retained vs Ramos) was less than 25 nM.

For the sequence GGGTTTGGCACCGGGCTGGC [CELTIC_core_12], the Kd is 1.5 nM in series [1] (_ is abasic C3 spacer at position 16) and 98 nM in series [2] (_ is abasic C3 spacer at position 16, kinetic 1.15 pM (Table 8)).

With GGGNTTGGCNNNGGGNCTGGC [CELTIC_core], the Kd in series [1] is 1 nM; in series [2] (kinetic 845 pM (Table 8)), 427 nM; in series [4], 1210 nM; in series [5], 591000 nM; in series [3] (negligible signal on Ramos), more than 50 nM.

GGGTTTGGCACGGGCCTGGC [CELTIC_core_24]: the Kd in series [1] (_ is abasic C3 spacer at position 11, 5'-HEG) turned out to be 0.041 nM; in series [2] (_ is abasic C3 spacer at position 11, 5'-HEG, kinetic 67 pM (Table 8)) it was 218 nM.

For GGGTTTGGCACGGGCCTGGC [CELTIC_core_24t], the Kd in series [1] (_ is abasic C3 spacer at position 11, 5'-HEG, 3'-3' dT) turned out to be 0.006 nM; in series [2] (_ is abasic C3 spacer at position 11, 5'-HEG, 3'-3' dT, kinetic 238 pM (Table 8)), 233 nM.

GGGTTTGGCACGGGCTGGC [CELTIC_core_42t]: the Kd in series [1] (_ is abasic C3 spacer at positions 11 and 16, 5'-HEG, 3'-3' dT) stood at 0.275 nM; in series [2] (_ is abasic C3 spacer at positions 11 and 16, 5'-HEG, 3'-3' dT, kinetic 43 pM (Table 8)) it was 176 nM.

The record behind these values is patent US20220251562.
